In US20230141962A1 (published 2023):

Assays:
Assay in all cases: phage ELISA
[1] = biological target: T1, HCoV-NL63 Spike/S1 Protein (HCoV-NL63, UniProt Q6Q1S2 19-717)
T1 construct: domain: Spike/S1; also called NL63-HIS
T1 sequence: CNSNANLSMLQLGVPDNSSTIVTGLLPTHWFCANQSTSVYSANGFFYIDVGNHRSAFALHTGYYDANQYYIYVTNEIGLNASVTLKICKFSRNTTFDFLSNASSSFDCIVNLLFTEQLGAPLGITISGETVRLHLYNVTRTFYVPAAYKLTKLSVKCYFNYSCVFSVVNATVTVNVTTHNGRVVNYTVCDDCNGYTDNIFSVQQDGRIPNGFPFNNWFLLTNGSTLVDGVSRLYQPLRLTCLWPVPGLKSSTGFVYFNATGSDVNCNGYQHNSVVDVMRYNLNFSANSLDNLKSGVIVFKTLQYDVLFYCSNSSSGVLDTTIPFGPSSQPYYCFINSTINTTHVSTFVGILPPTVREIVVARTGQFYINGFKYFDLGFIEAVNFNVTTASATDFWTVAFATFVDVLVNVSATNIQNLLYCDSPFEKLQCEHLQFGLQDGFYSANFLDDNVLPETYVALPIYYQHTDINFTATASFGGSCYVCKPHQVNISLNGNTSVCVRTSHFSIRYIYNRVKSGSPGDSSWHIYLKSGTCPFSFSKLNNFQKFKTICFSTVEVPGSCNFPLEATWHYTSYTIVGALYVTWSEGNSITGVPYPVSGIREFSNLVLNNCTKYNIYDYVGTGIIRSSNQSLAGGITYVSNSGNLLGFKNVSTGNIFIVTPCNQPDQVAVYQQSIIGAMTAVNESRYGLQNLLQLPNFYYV

[2] = biological target: T2, HCoV-229E Spike/S1 Protein (HCoV-229E, UniProt P15423 16-536)
T2 construct: domain: Spike/S1; also called 229E-HIS
T2 sequence: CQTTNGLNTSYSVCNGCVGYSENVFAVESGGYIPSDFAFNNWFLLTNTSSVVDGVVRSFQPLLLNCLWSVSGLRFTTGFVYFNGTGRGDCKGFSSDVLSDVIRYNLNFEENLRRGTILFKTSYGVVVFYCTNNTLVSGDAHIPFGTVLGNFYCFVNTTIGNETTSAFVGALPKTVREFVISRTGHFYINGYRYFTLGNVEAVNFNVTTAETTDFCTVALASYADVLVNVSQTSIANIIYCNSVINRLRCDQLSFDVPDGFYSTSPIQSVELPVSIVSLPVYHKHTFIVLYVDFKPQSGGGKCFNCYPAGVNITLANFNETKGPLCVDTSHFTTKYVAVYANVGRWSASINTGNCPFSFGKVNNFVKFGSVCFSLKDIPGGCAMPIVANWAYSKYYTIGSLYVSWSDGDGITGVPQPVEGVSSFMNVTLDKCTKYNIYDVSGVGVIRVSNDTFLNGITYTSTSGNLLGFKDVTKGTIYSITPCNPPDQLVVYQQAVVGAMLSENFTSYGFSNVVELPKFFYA

[3] = biological target: T3, HCoV-HKU1 Spike/S1 Protein (HCoV-HKU1, UniProt Q0ZME7 13-756)
T3 construct: domain: Spike/S1; also called HKU1-HIS
T3 sequence: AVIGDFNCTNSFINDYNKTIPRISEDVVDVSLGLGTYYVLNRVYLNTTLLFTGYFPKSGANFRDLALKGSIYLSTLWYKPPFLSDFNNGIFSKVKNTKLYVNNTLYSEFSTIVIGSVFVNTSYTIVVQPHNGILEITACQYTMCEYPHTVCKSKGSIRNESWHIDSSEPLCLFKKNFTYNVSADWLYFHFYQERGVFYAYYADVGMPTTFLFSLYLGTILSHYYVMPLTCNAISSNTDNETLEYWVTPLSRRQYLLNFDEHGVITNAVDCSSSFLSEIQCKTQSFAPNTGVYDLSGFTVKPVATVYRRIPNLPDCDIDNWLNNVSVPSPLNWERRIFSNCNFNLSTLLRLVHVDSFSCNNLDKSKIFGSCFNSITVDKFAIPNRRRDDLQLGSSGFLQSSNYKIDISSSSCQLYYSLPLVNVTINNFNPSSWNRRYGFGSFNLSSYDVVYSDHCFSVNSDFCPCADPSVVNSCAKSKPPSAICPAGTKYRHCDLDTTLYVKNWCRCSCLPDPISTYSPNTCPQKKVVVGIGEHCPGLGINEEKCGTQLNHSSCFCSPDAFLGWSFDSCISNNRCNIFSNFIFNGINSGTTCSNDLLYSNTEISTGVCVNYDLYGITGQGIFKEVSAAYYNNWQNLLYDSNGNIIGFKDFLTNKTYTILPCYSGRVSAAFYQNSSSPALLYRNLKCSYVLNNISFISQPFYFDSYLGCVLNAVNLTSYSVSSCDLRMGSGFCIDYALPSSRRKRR

HCoV-OC43 Spike Protein = biological target: T4, HCoV-OC43 Spike Protein (HCoV-OC43, UniProt P36334 14-1297)
T4 construct: also called OC43-HIS
T4 sequence: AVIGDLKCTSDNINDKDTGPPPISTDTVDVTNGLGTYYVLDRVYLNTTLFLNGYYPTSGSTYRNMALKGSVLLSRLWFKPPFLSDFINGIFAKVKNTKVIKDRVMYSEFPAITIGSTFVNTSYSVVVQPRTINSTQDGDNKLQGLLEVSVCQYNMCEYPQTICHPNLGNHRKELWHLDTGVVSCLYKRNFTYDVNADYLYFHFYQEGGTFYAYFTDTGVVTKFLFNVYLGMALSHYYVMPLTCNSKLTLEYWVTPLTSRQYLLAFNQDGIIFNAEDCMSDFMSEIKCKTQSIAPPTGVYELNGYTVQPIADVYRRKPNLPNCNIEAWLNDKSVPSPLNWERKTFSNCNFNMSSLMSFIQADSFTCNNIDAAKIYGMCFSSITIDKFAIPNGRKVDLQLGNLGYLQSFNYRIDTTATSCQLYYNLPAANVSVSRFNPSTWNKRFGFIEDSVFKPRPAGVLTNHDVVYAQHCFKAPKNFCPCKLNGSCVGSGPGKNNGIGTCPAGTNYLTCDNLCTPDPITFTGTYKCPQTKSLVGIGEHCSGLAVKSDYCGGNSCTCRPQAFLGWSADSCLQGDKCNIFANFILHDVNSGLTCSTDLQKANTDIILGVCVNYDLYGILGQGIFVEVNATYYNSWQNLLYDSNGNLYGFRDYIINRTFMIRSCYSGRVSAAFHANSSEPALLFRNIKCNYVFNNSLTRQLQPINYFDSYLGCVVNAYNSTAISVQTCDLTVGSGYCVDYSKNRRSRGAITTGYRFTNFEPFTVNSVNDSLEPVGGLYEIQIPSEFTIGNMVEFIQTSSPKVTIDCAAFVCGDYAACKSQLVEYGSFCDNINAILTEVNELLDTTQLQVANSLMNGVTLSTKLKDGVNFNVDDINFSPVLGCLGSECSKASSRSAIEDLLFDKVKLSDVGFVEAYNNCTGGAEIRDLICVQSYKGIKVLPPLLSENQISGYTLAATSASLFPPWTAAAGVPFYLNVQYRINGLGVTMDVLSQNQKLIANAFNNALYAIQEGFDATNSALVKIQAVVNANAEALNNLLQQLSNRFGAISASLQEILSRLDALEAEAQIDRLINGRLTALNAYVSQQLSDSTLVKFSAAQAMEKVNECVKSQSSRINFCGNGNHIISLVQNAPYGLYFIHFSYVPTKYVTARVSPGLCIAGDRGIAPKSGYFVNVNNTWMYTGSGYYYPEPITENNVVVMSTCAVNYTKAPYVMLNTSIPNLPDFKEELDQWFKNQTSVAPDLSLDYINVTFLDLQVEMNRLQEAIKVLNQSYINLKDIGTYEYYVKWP

Measured: binding result

B1: phage clone #13 (scFv)
scFv: QSVLTQPPSASGTPGQRVTISCSGSSSNIGSNYVYWYQQLPGTAPKLLIYRNNQRPSGVPDRFSGSKSGTSASLAISGLRSEDEADYYCAAWDDSLSGPNYVFGTGTKVTVLGSRGGGGSGGGGSGGGGSLEMAQVQLVQSGAEVKKPGSSVKVSCKASGGTFSSYAISWVRQAPGQGLEWMGWISGYNGNTNYAQKLQGRVTMTTDTSTSTAYMELRSLRSDDTAVYYCARTGWSKGEKVTTWGEWFYVDYWGQGTLVTVSSTSGQAGQ
no binding: all assays above

B2: phage clone #20 (scFv)
scFv: SYVLTQPPSASGTPGQRVTISCSGSSSNIGSNTVNWYQQLPGTAPKLLIYSNNQRPSGVPDRFSASKSGTSASLAISGFQSEDEADYYCAAWDDSLDGYVFGTGTKVTVLGSRGGGGSGGGGSGGGGSLEMAEVQLVQSGAEVKKPGESLKISCKGSGYSFPSYWIGWVRQMPGKGLEWMGIIYPGDSDTRYSPSFQGQVTISADKSISTAYLQWSSLKASDTAMYYCARGSYTYMGGSYDYWGQGTLVTVSSTSGQAGQ
no binding: all assays above

B3: phage clone #30 (scFv)
scFv: QSALTQPPSASGSPGQSVTISCTGTSSDVGGYDYVSWYQQHPGKAPKLMIYEVSKRPSGVSNRFSGSKSGNTASLTISGLQAEDEADYYCSSYTSSSTFPYVFGTGTKVTVLGSRGGGGSGGGGSGGGGSLEMAEVQLVESGGGLEQPGGSLRLSCAASGFTFSSYAMSWVRQAPGKGLEWVSAISASGNSTFYADSVKGRFTISRDNSKHTLDLQMNSLRADDTAVYYCARNSDVWGQGTLVTVSSTSGQAGQ
no binding: all assays above

B4: phage clone #19 (scFv)
scFv: QSALTQPASVSGSPGQSITISCTGTSSDVGGYNYVSWYQQHPGKVPKLMIYEVSNRPSGVSNRFSGSKSGNTASLTISGLQAEDEADYYCSSYTSGDTLVFGGGTKVTVLGSRGGGGSGGGGSGGGGSLEMAELQLVESGGGVVQPGRSPRLSCAASGFTFSNYPMHWVRQAPGKGLEWVAVISYDGNHKYYADSLEGRFSISRDNSKNTLYLQMNSLTAADTAVYYCARGGGMGGLDSWGQGTLVTVSSTSGQAGQ
no binding: all assays above
